According to article PMC4068993, “Chlamydia pneumoniae CopD Translocator Protein Plays a Critical Role in Type III Secretion (T3S) and Infection” (PLoS ONE, 2014):
Values joined by “and” are separate entries in the source; they are usually repeats but may differ in a detail not shown here. Equal values may be shown once.

B1: Full length His-CopD (natural protein)
chain: MTSGVSGSSSQDPTLAAQLAQSSQKAGNAQSGHDTKNVTKQGAQAEVAAGGFEDLIQDASAQSTGKKEATSSTTKSSKGEKSEKSGKSKSSTSVASASETATAQAVQGPKGLRQNNYDSPSLPTPEAQTINGIVLKKGMGTLALLGLVMTLMANAAGESWKASFQSQNQAIRSQVESAPAIGEAIKRQANHQASATEAQAKQSLISGIVNIVGFTVSVGAGIFSAAKGATSALKSASFAKETGASAAGGAASKALTSASSSVQQTMASTAKAATTAASSAGSAATKAAANLTDDMAAAASKMASDGASKASGGLFGEVLNKPNWSEKVSRGMNVVKTQGARVASFAGNALSSSMQMSQLMHGLTAAVEGLSAGQTGIEVAHHQRLAGQAEAQAEVLKQMSSVYGQQAGQAGQLQEQAMQSFNTALQTLQNIADSQTQTTSAIFN
notes: CopD (Cpn0808), Chlamydia pneumoniae CWL029, 444 amino acids (44.5 kDa); Eluted from SEC as decamer, tetramer and monomer; also called Cpn0808; source: E. coli Rosetta pLysS, co-expressed with LcrH_1-S-tag (pET-DUET), purified (Ni-NTA); not shown: 6×His, N-terminal, kept

Legend:
[1] = biological target: Full length His-CopD (Chlamydia pneumoniae CWL029) (UniProt Q9Z798); assay: SEC; co-expressed and Ni-NTA purified His-CopD and LcrH_1-S-tag (300 µL, 4.5 mg/mL), Superdex S200 10/300 GL, PBS + 0.03% LDAO, 0.5 mL/min; fractions blotted with anti-His and anti-S-tag; sizes from column standards
[2] = biological target: the molecule itself; assay: as above

Row | Molecule | stoichiometry N (LcrH 1 per CopD) [1] | stoichiometry N [2]
1 | LcrH_1-S-tag (natural protein) | 1 | 
2 | B1 |  | 10 and 4
